According to US20240033354A1 (University of California, published 2024):

What was measured:
[1] = target: TcdB2 (recombinant full-length, R20292 strain [sic], expressed in Bacillus megaterium) (Clostridium difficile, R20291 strain …, UniProt P18177 1-2366)
[2] = target: T1, TcdB1 holotoxin (recombinant full-length TcdB1, VPI10463 strain, expressed in Bacillus megaterium) (Clostridium difficile, VPI10463 strain, UniProt P18177 1-2366)
[3] = target: T1, TcdB1 holotoxin (recombinant …); test: two-step pull-down, first step (FIG. 15C)

Binder	Kd [1]	koff [1]	kon [1]	Kd [2]	koff [2]	kon [2]	binding result [3]
Repeat1-Fc (CSPG4 Repeat1, residues 410-551, fused to the N-terminus of the Fc fragment of a human IgG1) (Fc fusion) ELPEPCVPEPGLPPVFANFTQLLTISPLVVAEGGTAWLEWRHVQPTLDLMEAELRKSQVLFSVTRGARHGELELDIPGAQARKMFTLLDVVNRKARFIHDGSEDTSDQLVLEVSVTARVPMPSCLRRGQTYLLPIQVNPVND	~5.4 nM	~4.63e-05 s⁻¹	~8340 M⁻¹ s⁻¹	~15.2 nM	~0.000108 s⁻¹	~7060 M⁻¹ s⁻¹	
CSPG4^mini (CSPG4 residues 30-764) (receptor) ASFFGENHLEVPVATALTDIDLQLQFSTSQPEALLLLAAGPADHLLLQLYSGRLQVRLVLGQEELRLQTPAETLLSDSIPHTVVLTVVEGWATLSVDGFLNASSAVPGAPLEVPYGLFVGGTGTLGLPYLRGTSRPLRGCLHAATLNGRSLLRPLTPDVHEGCAEEFSASDDVALGFSGPHSLAAFPAWGTQDEGTLEFTLTTQSRQAPLAFQAGGRRGDFIYVDIFEGHLRAVVEKGQGTVLLHNSVPVADGQPHEVSVHINAHRLEISVDQYPTHTSNRGVLSYLEPRGSLLLGGLDAEASRHLQEHRLGLTPEATNASLLGCMEDLSVNGQRRGLREALLTRNMAAGCRLEEEEYEDDAYGHYEAFSTLAPEAWPAMELPEPCVPEPGLPPVFANFTQLLTISPLVVAEGGTAWLEWRHVQPTLDLMEAELRKSQVLFSVTRGARHGELELDIPGAQARKMFTLLDVVNRKARFIHDGSEDTSDQLVLEVSVTARVPMPSCLRRGQTYLLPIQVNPVNDPPHIIFPHGSLMVILEHTQKPLGPEVFQAYDPDSACEGLTFQVLGTSSGLPVERRDQPGEPATEFSCRELEAGSLVYVHRGGPAQDLTFRVSDGLQASPPATLKVVAIRPAIQIHRSTGLRLAQGSAMPILPANLSVETNAVGQDVSVLFRVTGALQFGELQKQGAGGVEGAEWWATQAFHQRDVEQGRVRYLSTDPQHHAYDTVENLALEVQ							binds
